According to article PMC2875865 (Nature cell biology, 2010):

Assays:
[1] = target: full-length FLAG-tagged STIM1 purified from insect cells (human, UniProt Q13586 23-685); assay: pull-down
[2] = target: full-length FLAG-tagged Orai1 purified from insect cells (human, UniProt Q96D31 1-301); assay: pull-down
full-length FLAG-tagged Orai1 purified from insect cells, sequence (Q96D31 whole entry): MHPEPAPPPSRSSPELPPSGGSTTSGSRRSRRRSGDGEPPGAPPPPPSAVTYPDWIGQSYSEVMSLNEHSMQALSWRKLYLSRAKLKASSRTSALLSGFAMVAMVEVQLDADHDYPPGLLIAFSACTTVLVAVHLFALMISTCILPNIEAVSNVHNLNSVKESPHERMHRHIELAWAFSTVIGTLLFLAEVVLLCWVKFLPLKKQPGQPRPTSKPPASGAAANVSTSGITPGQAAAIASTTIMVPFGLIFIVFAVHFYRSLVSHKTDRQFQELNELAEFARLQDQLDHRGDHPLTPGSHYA

full-length FLAG-tagged STIM1 purified from insect cells, sequence (Q13586 23-685): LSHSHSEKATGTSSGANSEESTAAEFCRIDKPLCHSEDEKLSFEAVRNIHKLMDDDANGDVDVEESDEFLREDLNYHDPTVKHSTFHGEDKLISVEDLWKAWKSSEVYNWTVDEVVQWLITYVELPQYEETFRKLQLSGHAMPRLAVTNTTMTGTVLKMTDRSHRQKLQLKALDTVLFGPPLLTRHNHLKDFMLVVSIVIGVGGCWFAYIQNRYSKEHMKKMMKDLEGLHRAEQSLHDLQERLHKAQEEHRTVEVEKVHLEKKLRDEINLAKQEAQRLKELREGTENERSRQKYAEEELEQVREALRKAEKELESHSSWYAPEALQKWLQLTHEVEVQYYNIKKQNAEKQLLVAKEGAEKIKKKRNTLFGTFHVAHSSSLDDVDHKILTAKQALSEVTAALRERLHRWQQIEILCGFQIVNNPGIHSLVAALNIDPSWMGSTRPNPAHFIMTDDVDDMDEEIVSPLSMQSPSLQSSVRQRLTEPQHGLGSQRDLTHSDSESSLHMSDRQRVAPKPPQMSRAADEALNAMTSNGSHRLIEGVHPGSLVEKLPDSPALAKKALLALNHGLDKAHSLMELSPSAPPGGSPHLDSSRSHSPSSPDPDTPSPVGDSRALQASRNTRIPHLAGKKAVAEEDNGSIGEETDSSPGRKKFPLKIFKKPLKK

binding result [1]: binds
binding result [2]: binds
B1: GST-fused STIM1 serine/threonine rich sequence (S/T) (domain or fragment)
chain: SSLDDVDHKILTAKQALSEVTAALRERLHRWQQIEILCGFQIVNNPGIHSLVAALNIDPSWMGSTRPNPAHFIMTDDVDDMDEEIVSPLSMQSPSLQSSVRQRLTEPQHGLGSQRDLTHSDSESSLHMSDRQRVAPKPPQMSRAADEALNAMTSNGSHRLIEGVHPGSLVEKLPDSPALAKKALLALNHGLDKAHSLMELS
